In paper PMC4934132:

Target: HPV16 L1 pentamers (L1 assembly mutant C428S) (HPV16)
Assay: electron microscopy

Substance: HPV16 L1 pentamers (L1 assembly mutant C428S) (natural protein)
- stoichiometry N: 5
